Measured values from patent US20240091374A1 (AbbVie / Abbott, published 2024).

Target: T1, Seizure-related homolog 6 (SEZ6) (UniProt Q53EL9 20-994, limits assumed)
T1 sequence (looked up): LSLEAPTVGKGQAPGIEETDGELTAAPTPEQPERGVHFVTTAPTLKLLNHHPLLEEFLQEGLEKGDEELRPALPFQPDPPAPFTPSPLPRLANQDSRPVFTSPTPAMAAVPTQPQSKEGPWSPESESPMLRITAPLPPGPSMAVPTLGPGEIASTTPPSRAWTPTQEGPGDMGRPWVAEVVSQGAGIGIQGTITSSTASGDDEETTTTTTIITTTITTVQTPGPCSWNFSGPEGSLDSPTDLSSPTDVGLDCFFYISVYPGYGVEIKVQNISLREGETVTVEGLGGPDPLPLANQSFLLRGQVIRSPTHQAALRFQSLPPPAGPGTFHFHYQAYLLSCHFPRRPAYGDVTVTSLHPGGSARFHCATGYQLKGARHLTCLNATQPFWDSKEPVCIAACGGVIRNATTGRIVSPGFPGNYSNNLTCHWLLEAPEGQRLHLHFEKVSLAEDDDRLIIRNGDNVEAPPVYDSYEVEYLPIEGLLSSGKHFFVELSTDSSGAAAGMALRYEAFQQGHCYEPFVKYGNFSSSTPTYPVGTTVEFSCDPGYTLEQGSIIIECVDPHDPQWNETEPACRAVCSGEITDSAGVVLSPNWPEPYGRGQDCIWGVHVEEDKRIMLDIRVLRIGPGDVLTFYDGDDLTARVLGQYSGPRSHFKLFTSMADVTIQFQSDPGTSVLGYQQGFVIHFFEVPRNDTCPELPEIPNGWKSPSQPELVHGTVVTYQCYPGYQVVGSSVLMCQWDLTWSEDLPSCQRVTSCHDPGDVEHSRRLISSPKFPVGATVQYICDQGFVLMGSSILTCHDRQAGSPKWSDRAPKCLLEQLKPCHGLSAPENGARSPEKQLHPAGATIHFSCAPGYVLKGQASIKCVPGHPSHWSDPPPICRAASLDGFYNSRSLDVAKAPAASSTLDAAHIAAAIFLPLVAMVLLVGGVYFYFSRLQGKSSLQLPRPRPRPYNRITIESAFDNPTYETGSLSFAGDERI
Test: cell-based or functional assay

B1: ADC-1 (anti-SEZ6 antibody Ab conjugated to TOP1i linker drug LD1, formula (IV), DAR about 6) (antibody, V domains shown)
VH: EVQLVQSGAEVKKPGESLKISCKGSGYSFTSSWINWVRQMPGKGLEWMGRIYPGEGDTNYNGNFEGQVTISADKSISTAYLQWSSLKASDTAMYYCTRGLVMDYWGQGTLVTVSS
VL: EIVLTQSPATLSLSPGERATLSCRASQSVDYNGISYMHWYQQKPGQAPRLLIYAASNVQSGIPARFSGSGSGTDFTLTISSLEPEDFAVYYCQQSIEDPPTFGGGTKVEIKR
modifications: linker drug LD1 (Example 1J, formula (III)) on sulfhydryl groups of cysteine residues after global reduction; positions not given; linker drug LD1 (Example 1J, formula (III)) on sulfhydryl groups of cysteine residues after global reduction; DAR of about 6 over the whole antibody, predominant species n = 6; positions not given
growth inhibitory IC50, CellTiter-Glo cell viability, 10 days, COR-L95 cells (SEZ6 mRNA positive): 0.33 nM | growth inhibitory IC50, CellTiter-Glo cell viability, 10 days, NCI-H146 cells (SEZ6 mRNA positive): 0.05 nM | growth inhibitory IC50, CellTiter-Glo cell viability, 10 days, NCI-H524 cells (SEZ6 mRNA positive): 0.33 nM | growth inhibitory IC50, CellTiter-Glo cell viability, 10 days, NCI-H526 cells (SEZ6 mRNA positive): 0.1 nM | growth inhibitory IC50, CellTiter-Glo cell viability, 10 days, NCI-H1963 cells (SEZ6 mRNA positive): 4.63 nM | growth inhibitory IC50, CellTiter-Glo cell viability, 10 days, row without a cell line label below COR-L95 (taken as a second COR-L95 value): 0.29 nM
